Test results published in US20230227576A1 (published 2023).

Target: carcinoembryonic antigen (CEA) (Homo sapiens (Human), UniProt P06731)
Test: cell-based or functional assay

B1: MFE23 CD28(IEV) truncated CoStAR (CAR)
chain: QVKLQQSGAELVRSGTSVKLSCTASGFNIKDSYMHWLRQGPEQGLEWIGWIDPENGDTEYAPKFQGKATFTTDTSSNTAYLQLSSLTSEDTAVYYCNEGTPTGPYYFDYWGQGTTVTVSSGGGGSGGGGSGGGGSENVLTQSPAIMSASPGEKVTITCSASSSVSYMHWFQQKPGTSPKLWIYSTSNLASGVPARFSGSGSGTSYSLTISRMEAEDAATYYCQQRSSYPLTFGAGTKLELKRIEVMYPPPYLDNEKSNGTIIHVKGKHLCPSPLFPGPSKPFWVLVVVGGVLACYSLLVTVAFIIFWVRSKRSRLLHSDYMNMTPRRPGPTRKHYQPYAPPRDFAAYRS
Question: With B1 as the binder, how does the “IL-2 secretion (ELISA)” value read?
Answer: 4.6 ng/mL
